# Experimental data from article PMC9352680, “A comprehensive thermodynamic model for RNA binding by the Saccharomyces cerevisiae Pumilio protein PUF4”.
# T1: PUF4 RNA-binding domain (Saccharomyces cerevisiae, UniProt P25339 537-888)
# T1 sequence: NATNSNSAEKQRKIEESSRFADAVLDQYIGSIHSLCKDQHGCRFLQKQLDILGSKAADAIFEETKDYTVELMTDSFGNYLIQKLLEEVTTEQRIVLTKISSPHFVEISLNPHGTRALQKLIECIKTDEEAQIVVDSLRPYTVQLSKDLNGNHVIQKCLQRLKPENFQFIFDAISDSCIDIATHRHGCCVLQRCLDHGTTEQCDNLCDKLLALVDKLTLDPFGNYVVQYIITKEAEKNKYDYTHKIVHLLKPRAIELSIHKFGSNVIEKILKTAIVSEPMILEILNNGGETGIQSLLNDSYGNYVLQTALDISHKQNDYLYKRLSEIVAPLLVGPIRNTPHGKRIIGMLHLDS
# Target: T1, PUF4 RNA-binding domain
# Experiment: Mg; RNA-MaP; 20 mM Na-HEPES pH 7.4, 30 mM KOAc, 0.75 mM MgCl2, 0.1% Tween-20, 5% glycerol, 0.1 mg/mL BSA, 2 mM DTT; 25 C; 0.0125-409.6 nM protein
# Conditions: tags: N-His6-TEV cleaved; C-SNAP kept, Cy3B-labelled; label: tethered on chip by stalled RNA polymerase
row,Binder,Kd [nM]
1,ACAAACGCUAUAUAUUACAACAAAC (ssRNA) [Id_ii_S3_P4E.3_K4.2_C4.2_[C-2G]_[T-1C]_H4.2_A4.1_F4.1_T4.2_[G10C]_[T11A]],24.5
2,ACAAACGAUAUAUAUUAACACAAAC (ssRNA) [Id_ii_S3_P4E.3_K4.2_C4.2_[C-2G]_[T-1A]_H4.2_A4.1_F4.1_T4.2_[G10A]_[T11C]],52.9
3,ACAAACGAUAUAUAUUACAACAAAC (ssRNA) [Id_ii_S3_P4E.3_K4.2_C4.2_[C-2G]_[T-1A]_H4.2_A4.1_F4.1_T4.2_[G10C]_[T11A]],50.4
4,UCUCUUUGUAUGAUUUUCUCUU (ssRNA) [Ib_S1_P5E.1_K5.1_C5.1_H5.1_A5.1_[T6G]_F5.1_[A10T]_T5.1],39.5
5,ACAAACUUUAUAUAUUACGACAAAC (ssRNA) [Id_ii_S3_P4E.3_K4.2_C4.2_[C-2T]_H4.2_A4.1_F4.1_T4.2_[G10C]_[T11G]],19.4
6,ACAAACAGACACUAUAUUACAAAC (ssRNA) [Id_ii_S3_P3E.4_K3.3_C3.2_[C-2A]_[T-1G]_H3.3_A3.1_F3.1_T3.2_[A10T]],2200
7,ACAAACCCACACUAUAAGACAAAC (ssRNA) [Id_ii_S3_P3E.4_K3.3_C3.2_[T-1C]_H3.3_A3.1_F3.1_T3.2_[T9A]_[A10G]],> 2300
8,ACAAACUCUAUAUAUUAUCACAAAC (ssRNA) [Id_ii_S3_P4E.3_K4.2_C4.2_[C-2T]_[T-1C]_H4.2_A4.1_F4.1_T4.2_[G10T]_[T11C]],16.3
9,ACAAACCGACACUAUACAACAAAC (ssRNA) [Id_ii_S3_P3E.4_K3.3_C3.2_[T-1G]_H3.3_A3.1_F3.1_T3.2_[T9C]],> 2300
10,ACAAACCGACACUAUAAAACAAAC (ssRNA) [Id_ii_S3_P3E.4_K3.3_C3.2_[T-1G]_H3.3_A3.1_F3.1_T3.2_[T9A]],> 2300
11,ACAAACGUUAUAUAUUAUCACAAAC (ssRNA) [Id_ii_S3_P4E.3_K4.2_C4.2_[C-2G]_H4.2_A4.1_F4.1_T4.2_[G10T]_[T11C]],42.4
12,UCUCUUUGUAUGAUUCUCUCUU (ssRNA) [Ib_S1_P5E.1_K5.1_C5.1_H5.1_A5.1_[T6G]_F5.1_[A10C]_T5.1],90
13,ACAAACCUACACUAUAUGACAAAC (ssRNA) [Id_ii_S3_P3E.4_K3.3_C3.2_H3.3_A3.1_F3.1_T3.2_[A10G]],> 2300
14,UCUCUUUGUAGUAUUUUCUCUU (ssRNA) [Ib_S1_P5E.1_K5.1_C5.1_H5.1_A5.1_[T5G]_F5.1_[A10T]_T5.1],101
15,ACAAACCUACACUAUAUCACAAAC (ssRNA) [Id_ii_S3_P3E.4_K3.3_C3.2_H3.3_A3.1_F3.1_T3.2_[A10C]],1760
16,ACAAACCGACACUAUACUACAAAC (ssRNA) [Id_ii_S3_P3E.4_K3.3_C3.2_[T-1G]_H3.3_A3.1_F3.1_T3.2_[T9C]_[A10T]],> 2300
17,ACAAACCUACACUAUACAACAAAC (ssRNA) [Id_ii_S3_P3E.4_K3.3_C3.2_H3.3_A3.1_F3.1_T3.2_[T9C]],1880
18,ACAAACGCUAUAUAUUAUCACAAAC (ssRNA) [Id_ii_S3_P4E.3_K4.2_C4.2_[C-2G]_[T-1C]_H4.2_A4.1_F4.1_T4.2_[G10T]_[T11C]],20.1
19,ACAAACGAUAUAUAUUAUGACAAAC (ssRNA) [Id_ii_S3_P4E.3_K4.2_C4.2_[C-2G]_[T-1A]_H4.2_A4.1_F4.1_T4.2_[G10T]_[T11G]],48.6
20,ACAAACCUACACUAUAGCACAAAC (ssRNA) [Id_ii_S3_P3E.4_K3.3_C3.2_H3.3_A3.1_F3.1_T3.2_[T9G]_[A10C]],2260
21,ACAAACAUACACUAUACCACAAAC (ssRNA) [Id_ii_S3_P3E.4_K3.3_C3.2_[C-2A]_H3.3_A3.1_F3.1_T3.2_[T9C]_[A10C]],1760

row,Binder,Kd [nM]
1,ACAAACACACACUAUAUUACAAAC (ssRNA) [Id_ii_S3_P3E.4_K3.3_C3.2_[C-2A]_[T-1C]_H3.3_A3.1_F3.1_T3.2_[A10T]],1650
2,ACAAACUAUAUAUAUUACGACAAAC (ssRNA) [Id_ii_S3_P4E.3_K4.2_C4.2_[C-2T]_[T-1A]_H4.2_A4.1_F4.1_T4.2_[G10C]_[T11G]],27.8
3,ACAAACUUACACUAUAUUACAAAC (ssRNA) [Id_ii_S3_P3E.4_K3.3_C3.2_[C-2T]_H3.3_A3.1_F3.1_T3.2_[A10T]],959
4,ACAAACGCUAUAUAUUAUUACAAAC (ssRNA) [Id_ii_S3_P4E.3_K4.2_C4.2_[C-2G]_[T-1C]_H4.2_A4.1_F4.1_T4.2_[G10T]],14.4
5,ACAAACACACACUAUAUCACAAAC (ssRNA) [Id_ii_S3_P3E.4_K3.3_C3.2_[C-2A]_[T-1C]_H3.3_A3.1_F3.1_T3.2_[A10C]],> 2300
6,ACAAACCUACACUAUAGAACAAAC (ssRNA) [Id_ii_S3_P3E.4_K3.3_C3.2_H3.3_A3.1_F3.1_T3.2_[T9G]],> 2300
7,ACAAACAUACACUAUAUCACAAAC (ssRNA) [Id_ii_S3_P3E.4_K3.3_C3.2_[C-2A]_H3.3_A3.1_F3.1_T3.2_[A10C]],1230
8,ACAAACGAUAUAUAUUAAAACAAAC (ssRNA) [Id_ii_S3_P4E.3_K4.2_C4.2_[C-2G]_[T-1A]_H4.2_A4.1_F4.1_T4.2_[G10A]_[T11A]],74.6
9,ACAAACCGACACUAUAUAACAAAC (ssRNA) [Id_ii_S3_P3E.4_K3.3_C3.2_[T-1G]_H3.3_A3.1_F3.1_T3.2],> 2300
10,ACAAACCCACACUAUACGACAAAC (ssRNA) [Id_ii_S3_P3E.4_K3.3_C3.2_[T-1C]_H3.3_A3.1_F3.1_T3.2_[T9C]_[A10G]],> 2300
11,UCUCUUUGUACUAUUUUCUCUU (ssRNA) [Ib_S1_P5E.1_K5.1_C5.1_H5.1_A5.1_[T5C]_F5.1_[A10T]_T5.1],10.2
12,ACAAACAAACACUAUAGGACAAAC (ssRNA) [Id_ii_S3_P3E.4_K3.3_C3.2_[C-2A]_[T-1A]_H3.3_A3.1_F3.1_T3.2_[T9G]_[A10G]],> 2300
13,ACAAACAUACACUAUAACACAAAC (ssRNA) [Id_ii_S3_P3E.4_K3.3_C3.2_[C-2A]_H3.3_A3.1_F3.1_T3.2_[T9A]_[A10C]],1680
14,UCUCUUUGUAAUAUUUUCUCUU (ssRNA) [Ib_S1_P5E.1_K5.1_C5.1_H5.1_A5.1_[T5A]_F5.1_[A10T]_T5.1],15
15,ACAAACGCUAUAUAUUAAUACAAAC (ssRNA) [Id_ii_S3_P4E.3_K4.2_C4.2_[C-2G]_[T-1C]_H4.2_A4.1_F4.1_T4.2_[G10A]],19.9
16,ACAAACUCUAUAUAUUAUGACAAAC (ssRNA) [Id_ii_S3_P4E.3_K4.2_C4.2_[C-2T]_[T-1C]_H4.2_A4.1_F4.1_T4.2_[G10T]_[T11G]],14.5
17,ACAAACAGACACUAUACAACAAAC (ssRNA) [Id_ii_S3_P3E.4_K3.3_C3.2_[C-2A]_[T-1G]_H3.3_A3.1_F3.1_T3.2_[T9C]],> 2300
18,ACAAACAUACACUAUAUUACAAAC (ssRNA) [Id_ii_S3_P3E.4_K3.3_C3.2_[C-2A]_H3.3_A3.1_F3.1_T3.2_[A10T]],556
19,ACAAACGAUAUAUAUUACCACAAAC (ssRNA) [Id_ii_S3_P4E.3_K4.2_C4.2_[C-2G]_[T-1A]_H4.2_A4.1_F4.1_T4.2_[G10C]_[T11C]],53.1
20,ACAAACAUACACUAUAGAACAAAC (ssRNA) [Id_ii_S3_P3E.4_K3.3_C3.2_[C-2A]_H3.3_A3.1_F3.1_T3.2_[T9G]],1310
21,ACAAACGUUAUAUAUUAUUACAAAC (ssRNA) [Id_ii_S3_P4E.3_K4.2_C4.2_[C-2G]_H4.2_A4.1_F4.1_T4.2_[G10T]],31.6

row,Binder,Kd [nM]
1,ACAAACACACACUAUAGCACAAAC (ssRNA) [Id_ii_S3_P3E.4_K3.3_C3.2_[C-2A]_[T-1C]_H3.3_A3.1_F3.1_T3.2_[T9G]_[A10C]],> 2300
2,ACAAACCCACACUAUAGCACAAAC (ssRNA) [Id_ii_S3_P3E.4_K3.3_C3.2_[T-1C]_H3.3_A3.1_F3.1_T3.2_[T9G]_[A10C]],> 2300
3,ACAAACCCACACUAUAUUACAAAC (ssRNA) [Id_ii_S3_P3E.4_K3.3_C3.2_[T-1C]_H3.3_A3.1_F3.1_T3.2_[A10T]],2120
4,ACAAACGAUAUAUAUUAUAACAAAC (ssRNA) [Id_ii_S3_P4E.3_K4.2_C4.2_[C-2G]_[T-1A]_H4.2_A4.1_F4.1_T4.2_[G10T]_[T11A]],41.7
5,ACAAACUCUAUAUAUUAUAACAAAC (ssRNA) [Id_ii_S3_P4E.3_K4.2_C4.2_[C-2T]_[T-1C]_H4.2_A4.1_F4.1_T4.2_[G10T]_[T11A]],15.5
6,ACAAACGGUAUAUAUUAAGACAAAC (ssRNA) [Id_ii_S3_P4E.3_K4.2_C4.2_[C-2G]_[T-1G]_H4.2_A4.1_F4.1_T4.2_[G10A]_[T11G]],48.8
7,ACAAACUUACACUAUAAAACAAAC (ssRNA) [Id_ii_S3_P3E.4_K3.3_C3.2_[C-2T]_H3.3_A3.1_F3.1_T3.2_[T9A]],> 2300
8,ACAAACUUACACUAUAUAACAAAC (ssRNA) [Id_ii_S3_P3E.4_K3.3_C3.2_[C-2T]_H3.3_A3.1_F3.1_T3.2],968
9,ACAAACUUUAUAUAUUAUCACAAAC (ssRNA) [Id_ii_S3_P4E.3_K4.2_C4.2_[C-2T]_H4.2_A4.1_F4.1_T4.2_[G10T]_[T11C]],16.5
10,ACAAACGAUAUAUAUUAAUACAAAC (ssRNA) [Id_ii_S3_P4E.3_K4.2_C4.2_[C-2G]_[T-1A]_H4.2_A4.1_F4.1_T4.2_[G10A]],40.7
11,ACAAACAAACACUAUACAACAAAC (ssRNA) [Id_ii_S3_P3E.4_K3.3_C3.2_[C-2A]_[T-1A]_H3.3_A3.1_F3.1_T3.2_[T9C]],> 2300
12,ACAAACGCUAUAUAUUACCACAAAC (ssRNA) [Id_ii_S3_P4E.3_K4.2_C4.2_[C-2G]_[T-1C]_H4.2_A4.1_F4.1_T4.2_[G10C]_[T11C]],27.1
13,ACAAACAUACACUAUACUACAAAC (ssRNA) [Id_ii_S3_P3E.4_K3.3_C3.2_[C-2A]_H3.3_A3.1_F3.1_T3.2_[T9C]_[A10T]],1070
14,ACAAACUAUAUAUAUUAACACAAAC (ssRNA) [Id_ii_S3_P4E.3_K4.2_C4.2_[C-2T]_[T-1A]_H4.2_A4.1_F4.1_T4.2_[G10A]_[T11C]],32.9
15,ACAAACUUACACUAUAGCACAAAC (ssRNA) [Id_ii_S3_P3E.4_K3.3_C3.2_[C-2T]_H3.3_A3.1_F3.1_T3.2_[T9G]_[A10C]],2170
16,UCUCUUUGUAUAAUUCUCUCUU (ssRNA) [Ib_S1_P5E.1_K5.1_C5.1_H5.1_A5.1_[T6A]_F5.1_[A10C]_T5.1],10.6
17,ACAAACCUACACUAUAAUACAAAC (ssRNA) [Id_ii_S3_P3E.4_K3.3_C3.2_H3.3_A3.1_F3.1_T3.2_[T9A]_[A10T]],> 2300
18,ACAAACCUACACUAUACUACAAAC (ssRNA) [Id_ii_S3_P3E.4_K3.3_C3.2_H3.3_A3.1_F3.1_T3.2_[T9C]_[A10T]],> 2300
19,ACAAACCUACACUAUAAAACAAAC (ssRNA) [Id_ii_S3_P3E.4_K3.3_C3.2_H3.3_A3.1_F3.1_T3.2_[T9A]],> 2300
20,ACAAACGAUAUAUAUUAAGACAAAC (ssRNA) [Id_ii_S3_P4E.3_K4.2_C4.2_[C-2G]_[T-1A]_H4.2_A4.1_F4.1_T4.2_[G10A]_[T11G]],76.8
21,ACAAACGUUAUAUAUUACUACAAAC (ssRNA) [Id_ii_S3_P4E.3_K4.2_C4.2_[C-2G]_H4.2_A4.1_F4.1_T4.2_[G10C]],58
